Measured values: patent US20250296982A1
pKd: −log10 of the molar value. Blank lines part the entries; values can stand above or below the substance they belong to.

Legend:
[1] = target: recombinant human FcRn (human α-FcRn with a 6× histidine tag on the C-terminus, co-expressed with human β2M) (human) (UniProt P55899); experiment: biolayer interferometry (Octet): antibody on anti-CH1 biosensor, recombinant FcRn in solution, pH 6.0; fold change against IgG with WT Fc
[2] = target: TRIM21-GST (Antibodies Online catalogue #ABIN1323621) (UniProt P19474); experiment: ELISA: antibody coated at 25 µg/mL, TRIM21-GST titrated, EC50 = midpoint of the 4PL fit
FcγRIIIa [3] = target: FcγRIIIa (UniProt P08637); experiment: plate binding assay, O.D. 650 against antibody concentration (format not described in Example 4)
[4] = target: TRIM21-GST (Antibodies Online catalogue #ABIN1323621) (UniProt P19474); experiment: ELISA, antibody coated, TRIM21-GST titrated; reference WT
[5] = target: recombinant human FcRn (human α-FcRn with a 6× histidine tag on the C-terminus, co-expressed with human β2M) (human) (UniProt P55899); experiment: biolayer interferometry (Octet): antibody on anti-CH1 biosensor, recombinant FcRn in solution, pH 6.0; reference of the fold changes
[6] = target: C1q of the low toxicity guinea pig complement used in the CDC assay (Cedarlane Laboratories Product #CL4051) (guinea pig)
FcγRIIIa [7] = target: FcγRIIIa (UniProt P08637)
[8] = target: full-length, membrane-bound FcRn heterodimer (FcRn alpha and β2m) on transiently transfected Expi293 cells (UniProt P55899); experiment: cell-based competition at pH 6.0, flow cytometry: FcRn-expressing cells, dilutions of IgG against a fixed concentration of labelled Fc competitor Fc-A488
[9] = target: recombinant human FcRn (human α-FcRn with a 6× histidine tag on the C-terminus, co-expressed with human β2M) (human) (UniProt P55899); experiment: biolayer interferometry (Octet): antibody on anti-CH1 tip, FcRn in solution, pH 6.0
FcγRIIIa [10] = target: FcγRIIIa (UniProt P08637); experiment: ELISA: FcγRIIIA coated, antibody titrated

TRIM21 binding EC50, fold of WT EC50 [4]: < 1.5 fold | kd (fold decrease*) [1]: 12.4 fold | koff (fold decrease*) [1]: 4 fold | kon (fold increase*) [1]: 3.2 fold | EC50 [2]: 10400 ng/mL
Substance: Motavizumab with Fc variant FcMut228 (T256D_N286D_T307R_Q311V_A378V) (antibody)

EC50 (ADCC reporter bioassay, CD20+ WIL2-S target cells) (FcγRIIIa [7]): 3.92 ng/mL
Substance: Rituximab with Fc variant FcMut183 (T256D_Q311V_A378V) (antibody)
EC50 (CDC, CD20+ Raji cells with guinea pig complement) [6]: 0.103 ng/mL

EC50 (ADCC reporter bioassay, CD20+ WIL2-S target cells) (FcγRIIIa [7]): 4.01 ng/mL
Substance: Rituximab with Fc variant FcMut213 (H285D_T307Q_A378V) (antibody)
EC50 (CDC, CD20+ Raji cells with guinea pig complement) [6]: 0.267 ng/mL

EC50 (ADCC reporter bioassay, CD20+ WIL2-S target cells) (FcγRIIIa [7]): 2.66 ng/mL
Substance: Rituximab with Fc variant FcMut228 (T256D_N286D_T307R_Q311V_A378V) (antibody)
EC50 (CDC, CD20+ Raji cells with guinea pig complement) [6]: 0.22 ng/mL

IC50 (read off the curve) [8]: 300 nM | EC50 (ADCC reporter bioassay, CD20+ WIL2-S target cells) (FcγRIIIa [7]): 6.14 ng/mL | pKd [9]: 6.06 | EC50 (read off the curve) (FcγRIIIa [3]): 40 nM | EC50 (read off the curve) (FcγRIIIa [10]): 3000 ng/mL
Substance: WT (antibody)
EC50 (CDC, CD20+ Raji cells with guinea pig complement) [6]: 0.715 ng/mL

kd (fold decrease*) [1]: 8.5 fold | koff (fold decrease*) [1]: 3.6 fold | kon (fold increase*) [1]: 2.3 fold | EC50 [2]: 10100 ng/mL
Substance: YTE (Medimmune) (antibody)

More lines, now with the values behind:

Substance: LS (Xencor) (antibody)
kd (fold decrease*) [1]: 9.2 fold | koff (fold decrease*) [1]: 3.6 fold | kon (fold increase*) [1]: 2.6 fold | EC50 [2]: 14500 ng/mL

Substance: LS (antibody)
EC50 (read off the curve) (FcγRIIIa [3]): 60 nM

Substance: Motavizumab with Fc variant FcMut045 (T256D_T307R_Q311V) (antibody)
TRIM21 binding EC50, fold of WT EC50 [4]: < 1.5 fold | kd (fold decrease*) [1]: 5.9 fold | koff (fold decrease*) [1]: 2.6 fold | kon (fold increase*) [1]: 2.3 fold | EC50 [2]: 7730 ng/mL

Substance: Motavizumab with Fc variant FcMut183 (T256D_Q311V_A378V) (antibody)
TRIM21 binding EC50, fold of WT EC50 [4]: < 1.5 fold | kd (fold decrease*) [1]: 11 fold | koff (fold decrease*) [1]: 3.2 fold | kon (fold increase*) [1]: 3.2 fold | EC50 [2]: 7410 ng/mL

Substance: Motavizumab with Fc variant FcMut197 (H285N_T307Q_N315D) (antibody)
TRIM21 binding EC50, fold of WT EC50 [4]: < 1.5 fold | kd (fold decrease*) [1]: 9.1 fold | koff (fold decrease*) [1]: 3 fold | kon (fold increase*) [1]: 2.9 fold | EC50 [2]: 12300 ng/mL

Substance: Motavizumab with Fc variant FcMut213 (H285D_T307Q_A378V) (antibody)
TRIM21 binding EC50, fold of WT EC50 [4]: < 1.5 fold | kd (fold decrease*) [1]: 13.2 fold | koff (fold decrease*) [1]: 3.3 fold | kon (fold increase*) [1]: 3.8 fold | EC50 [2]: 10500 ng/mL

Substance: Motavizumab with Fc variant FcMut215 (T307Q_Q311V_A378V) (antibody)
TRIM21 binding EC50, fold of WT EC50 [4]: < 1.5 fold | kd (fold decrease*) [1]: 12.4 fold | koff (fold decrease*) [1]: 3.7 fold | kon (fold increase*) [1]: 3.4 fold | EC50 [2]: 7800 ng/mL

Substance: Motavizumab with wild-type Fc (antibody)
EC50 [2]: 8500 ng/mL | kd (fold decrease*) [5]: 1 fold | koff (fold decrease*) [5]: 1 fold | kon (fold increase*) [5]: 1 fold

Substance: Rituximab with Fc variant FcMut197 (H285N_T307Q_N315D) (antibody)
EC50 (CDC, CD20+ Raji cells with guinea pig complement) [6]: 2.54 ng/mL | EC50 (ADCC reporter bioassay, CD20+ WIL2-S target cells) (FcγRIIIa [7]): 8.3 ng/mL

Substance: Rituximab with Fc variant FcMut215 (T307Q_Q311V_A378V) (antibody)
EC50 (CDC, CD20+ Raji cells with guinea pig complement) [6]: 0.141 ng/mL | EC50 (ADCC reporter bioassay, CD20+ WIL2-S target cells) (FcγRIIIa [7]): 2.73 ng/mL

Substance: Rituximab with Fc variant FcMut229 (T256D_H285D_T307R_Q311V_A378V) (antibody)
EC50 (CDC, CD20+ Raji cells with guinea pig complement) [6]: 0.14 ng/mL | EC50 (ADCC reporter bioassay, CD20+ WIL2-S target cells) (FcγRIIIa [7]): 3.07 ng/mL

Substance: antibody molecule with Fc variant FcMut008 (T256D_T307R)
IC50 (read off the curve) [8]: 100 nM | pKd [9]: 6.42

Substance: antibody molecule with Fc variant FcMut015 (D376Q_M428L)
IC50 (read off the curve) [8]: 90 nM | pKd [9]: 6.54
